Test results reported in IntAct's records for PubMed 11483516.

B1: STAM-binding protein (Homo sapiens), O95630 (parent)
chain: MSDHGDVSLPPEDRVRALSQLGSAVEVNEDIPPRRYFRSGVEIIRMASIYSEEGNIEHAFILYNKYITLFIEKLPKHRDYKSAVIPEKKDTVKKLKEIAFPKAEELKAELLKRYTKEYTEYNEEKKKEAEELARNMAIQQELEKEKQRVAQQKQQQLEQEQFHAFEEMIRNQELEKERLKIVQEFGKVDPGLGGPLVPDLEKPSLDVFPTLTVSSIQPSDCHTTVRPAKPPVVDRSLKPGALSNSESIPTIDGLRHVVVPGRLCPQFLQLASANTARGVETCGILCGKLMRNEFTITHVLIPKQSAGSDYCNTENEEELFLIQDQQGLITLGWIHTHPTQTAFLSSVDLHTHCSYQMMLPESVAIVCSPKFQETGFFKLTDHGLEEISSCRQKGFHPHSKDPPLFCSCSHVTVVDRAVTITDLR
partner: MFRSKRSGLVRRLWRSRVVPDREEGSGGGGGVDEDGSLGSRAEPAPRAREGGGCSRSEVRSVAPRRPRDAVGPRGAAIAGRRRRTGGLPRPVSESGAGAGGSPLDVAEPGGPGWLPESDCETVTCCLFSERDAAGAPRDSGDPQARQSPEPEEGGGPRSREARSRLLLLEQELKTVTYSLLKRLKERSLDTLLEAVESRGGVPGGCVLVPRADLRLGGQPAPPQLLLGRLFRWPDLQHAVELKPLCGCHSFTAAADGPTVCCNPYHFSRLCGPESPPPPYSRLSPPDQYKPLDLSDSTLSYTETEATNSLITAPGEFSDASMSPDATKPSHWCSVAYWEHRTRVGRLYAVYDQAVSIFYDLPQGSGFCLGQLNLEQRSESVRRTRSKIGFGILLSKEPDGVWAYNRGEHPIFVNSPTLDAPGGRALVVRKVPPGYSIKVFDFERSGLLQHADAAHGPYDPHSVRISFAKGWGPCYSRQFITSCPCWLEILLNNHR

Variants of: B1
Conditions: with smad6_mouse Smad6, O35182
MSDHGDVSLPPEDRVRALSQLGSAVEVNEDIPPRRYFRSGVEIIRMASIYSEEGNIEHAFILYNKYITLFIEKLPKHRDYKSAVIPEKKDTVKKLKEIAFPKAEELKAELLKRYTKEYTEYNEEKKKEAEELARNMAIQQELEKEKQRVAQQKQQQLEQEQFHAFEEMIRNQELEKERLKIVQEFGKVDPGLGGPLVPDLEKPSLDVFPTLTVSSIQPSDCHTTVRPAKPPVVDRSLKPGALANAEAIPTIDGLRHVVVPGRLCPQFLQLASANTARGVETCGILCGKLMRNEFTITHVLIPKQSAGSDYCNTENEEELFLIQDQQGLITLGWIHTHPTQTAFLSSVDLHTHCSYQMMLPESVAIVCSPKFQETGFFKLTDHGLEEISSCRQKGFHPHSKDPPLFCSCSHVTVVDRAVTITDLR [S243A;S245A;S247A] was tested, and the “effect of a mutation on the interaction” value was “increasing interaction”.
